Among the data in publication PMC12168090 are stoichiometry N values, retold here.

Broadly, the stoichiometry N is a count of units in the complex or per binding partner.

This test addresses NSP5, rotavirus RV Strain A RF, N-terminally Strep-tagged, full length (group A rotavirus, strain RF (RV Strain A RF)). The experiment in a line: native MS; full-length NSP5 in 200 mM ammonium acetate pH 6.9, 20 μM monomer; Q-Exactive UHMR, nESI.

The substance “NSP5, rotavirus RV Strain A RF, N-terminally Strep-tagged, full length (natural protein)” yielded a stoichiometry N of 10.
